How the values were obtained:
[1] = target: Dictyostelium myosin (myosin heavy chains), P08799
[2] = target: rabbit reticulocyte eEF-2, P55823

Chain of Dictyostelium myosin (myosin heavy chains), P08799 (P08799 whole entry): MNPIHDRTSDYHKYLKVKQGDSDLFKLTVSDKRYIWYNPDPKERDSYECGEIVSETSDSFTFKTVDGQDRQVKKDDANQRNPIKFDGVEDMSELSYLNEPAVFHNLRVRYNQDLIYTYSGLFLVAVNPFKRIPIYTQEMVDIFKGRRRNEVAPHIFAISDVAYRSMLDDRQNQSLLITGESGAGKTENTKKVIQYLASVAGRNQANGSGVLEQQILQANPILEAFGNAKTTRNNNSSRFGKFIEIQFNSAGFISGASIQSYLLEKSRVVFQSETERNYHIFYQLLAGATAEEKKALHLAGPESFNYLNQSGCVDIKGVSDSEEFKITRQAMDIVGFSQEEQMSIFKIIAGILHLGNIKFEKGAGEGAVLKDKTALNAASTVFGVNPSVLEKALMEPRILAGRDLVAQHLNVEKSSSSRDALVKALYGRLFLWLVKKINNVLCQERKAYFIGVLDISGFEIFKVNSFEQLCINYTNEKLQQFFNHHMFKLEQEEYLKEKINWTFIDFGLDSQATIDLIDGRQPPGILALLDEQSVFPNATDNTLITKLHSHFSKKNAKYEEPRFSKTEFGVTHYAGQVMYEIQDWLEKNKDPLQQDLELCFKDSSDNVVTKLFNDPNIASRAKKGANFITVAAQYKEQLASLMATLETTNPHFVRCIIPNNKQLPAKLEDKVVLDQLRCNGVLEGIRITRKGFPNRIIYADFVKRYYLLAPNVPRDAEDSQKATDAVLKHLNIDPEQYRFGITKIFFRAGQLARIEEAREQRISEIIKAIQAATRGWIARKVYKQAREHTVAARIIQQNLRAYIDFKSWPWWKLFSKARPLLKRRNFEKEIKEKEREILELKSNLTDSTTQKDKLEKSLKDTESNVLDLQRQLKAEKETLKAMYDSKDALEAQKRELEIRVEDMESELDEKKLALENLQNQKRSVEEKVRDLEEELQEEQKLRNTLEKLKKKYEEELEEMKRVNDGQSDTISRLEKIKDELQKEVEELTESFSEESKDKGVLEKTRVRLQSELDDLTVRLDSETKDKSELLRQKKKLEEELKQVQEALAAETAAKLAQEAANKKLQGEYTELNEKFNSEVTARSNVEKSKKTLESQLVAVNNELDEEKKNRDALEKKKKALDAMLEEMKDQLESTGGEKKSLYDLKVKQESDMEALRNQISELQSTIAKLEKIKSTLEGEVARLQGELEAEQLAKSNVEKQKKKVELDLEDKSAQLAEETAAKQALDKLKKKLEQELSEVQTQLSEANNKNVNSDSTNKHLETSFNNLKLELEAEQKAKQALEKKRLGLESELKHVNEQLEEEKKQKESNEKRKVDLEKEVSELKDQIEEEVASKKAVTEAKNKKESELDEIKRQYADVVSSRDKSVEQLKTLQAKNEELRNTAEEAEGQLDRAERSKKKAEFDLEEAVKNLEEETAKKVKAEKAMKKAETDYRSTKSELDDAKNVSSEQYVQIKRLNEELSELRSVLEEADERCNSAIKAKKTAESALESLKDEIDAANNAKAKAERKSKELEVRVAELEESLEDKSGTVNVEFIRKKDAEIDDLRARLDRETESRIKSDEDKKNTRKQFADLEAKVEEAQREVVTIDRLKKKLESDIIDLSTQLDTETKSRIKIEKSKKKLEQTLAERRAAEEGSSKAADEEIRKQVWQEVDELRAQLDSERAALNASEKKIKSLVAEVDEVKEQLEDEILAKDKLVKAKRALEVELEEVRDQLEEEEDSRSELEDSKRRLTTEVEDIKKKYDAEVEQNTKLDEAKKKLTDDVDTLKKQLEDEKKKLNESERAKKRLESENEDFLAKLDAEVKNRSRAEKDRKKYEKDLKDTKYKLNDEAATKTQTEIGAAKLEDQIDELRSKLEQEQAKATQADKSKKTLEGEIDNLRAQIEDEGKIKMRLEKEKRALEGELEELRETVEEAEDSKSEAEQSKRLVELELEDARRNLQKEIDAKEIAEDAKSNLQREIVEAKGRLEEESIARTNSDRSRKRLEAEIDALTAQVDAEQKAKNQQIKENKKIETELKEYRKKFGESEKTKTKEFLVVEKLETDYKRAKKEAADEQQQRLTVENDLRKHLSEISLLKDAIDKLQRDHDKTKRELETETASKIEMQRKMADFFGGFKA

B1: myosin heavy chain kinase A (MHCK A) from Dictyostelium (protein)
chain: MFNIKKRKESITGIPPINVNSPQSVPLSGTLQSPLITPNSPNFVSRQCPFKKFGCSSFLVSKAEFDNHLKDDAQFHLQLAVEKFDHQFDLHTQLMAHFTEQMEDQLEKTMKVVRNHTDSLGGNVQTKLDEGIEKCMAFAKKVEQQQQQLAKRLITQQIQEKKSTSSPLVKGGISGGGGSGGDDSFDGANISSMSTSKQELQQELQSLSIKMKKELTELSDELSQKLERSTGNIDIKIKRIEGEVNEKIDKRQLVSTIDDSIGKKTDSIGYTLESSIIKKVEEKEKKKSEQNQLLFDSKIESLKDKIKIIETQQLDTSSEVRKLKLESTSSGNLMAGLNGTSGRPSSSSHFIPSSVSAAANNINKNEIMEEVKKVEEKLQKKIREEIDNTKSELSKVERSVKDNRSEIEGLEKDCKNQFDKQDNKIKQVEDDLKKSDSLLLLMQNNLKKYNEFVDRERDRESERLKLQDSIKRLEQNQKKIEAEIQEGNEQVERVLREEASISPISSVPKSPITTKRSSIILNSPPMTSQQSSPKIQDLLSSSGSSSVSGINISSETGEMGILWEFDPIINKWIRLSMKLKVERKPFAEGALREAYHTVSLGVGTDENYPLGTTTKLFPPIEMISPISKNNEAMTQLKNGTKFVLKLYKKEAEQQASRELYFEDVKMQMVCRDWGNKFNQKKPPKKIEFLMSWVVELIDRSPSSNGQPILCSIEPLLVGEFKKNNSNYGAVLTNRSTPQAFSHFTYELSNKQMIVVDIQGVDDLYTDPQIHTPDGKGFGLGNLGKAGINKFITTHKCNAVCALLDLDVKLGGVLSGNNKKQLQQGTMVMPDILPELMPSDNTIKVGAKQLPKAEFSKKDLKCVSTIQSFRERVNSIAFFDNQKLLCAGYGDGTYRVFDVNDNWKCLYTVNGHRKSIESIACNSNYIFTSSPDNTIKVHIIRSGNTKCIETLVGHTGEVNCVVANEKYLFSCSYDKTIKVWDLSTFKEIKSFEGVHTKYIKTLALSGRYLFSGGNDQIIYVWDTETLSMLFNMQGHEDWVLSLHCTASYLFSTSKDNVIKIWDLSNFSCIDTLKGHWNSVSSCVVKDRYLYSGSEDNSIKVWDLDTLECVYTIPKSHSLGVKCLMVFNNQIISAAFDGSIKVWEWQSK
phosphorylation assay (substrate specificity), 10 min [1]: each of these kinases is specific for their respective substrates
phosphorylation assay (substrate specificity), 10 min [2]: MHCK A cannot phosphorylate eEF-2

B2: rabbit reticulocyte eEF-2 kinase (protein)
chain: ADEDLIFRLEGLGGHQSSQTGHDGDSDADSDEEEGYFICPITDDPQSNQNVNSKINNYYSNLTKSERYGSSGSPASSFHFKEAWKHAIEKAKHMPDPWAEFHLEDIATECATRHRYNAVTGEWLQDEVLIKMASQPFGRGAMRECFRTKKLSNFLHAQQWKGASNYVAKRYIESVDRDVYFEDVRLQMEAKLWGEEYNRHKPPKQVDIMQMCIIELTERPGKPLFHLEHYIEGKYIKYNSNSGFVRDDNIRLTPQAFSHFTFERSGHQLIVVDIQGVGDLYTDPQIHTETGTDFGDGNLGVRGMALFFYSHACNRICKSMGLAPFDLSPREQDAVNQNTKLLQSAKTILRGTEEKCGSPRVRTLSGSRPPLLLRLSENSGDENMSDVTFDSLPSSPSSATPHSQKLDHLHWPVFSDLDNMAAREQDHLDNQRDSENSGDSGYPSEKRSELDDPEPREHGHSNGNRRCESDEDSLGSSGRVCVEKWNLLNPSRLHLPRASAVALEVQRLNALDLERKIGKSVLGKVHLAMVRYHEGGRFCDRDEEWDRESAVFHLEHAADLGELEAIVGLGLMYSQLPHHILADVSLKDTKENKTKGFDYLLKAAEAGDRQSMILVARAFDTGQNLSPERSRDWQEALHWYNSALEMTDCDEGGEYDGVQDEPRYTLLAREAEMLFTGGCGLDKDPQRSGDLYTQAAEAAMEAMKGRLANQYYQKAEEAWAQMEE
phosphorylation assay (substrate specificity), 10 min [1]: rabbit eEF-2 kinase cannot use myosin heavy chains as a substrate
phosphorylation assay (substrate specificity), 10 min [2]: each of these kinases is specific for their respective substrates

B3: recombinant C. elegans eEF-2 kinase (translation products of the mixture of Cefk-1 and Cefk-2) (protein)
chain: MTIDTTNESDNSPTNSPGLEASARTFSLNASKMVRITDDYADEVFIEQNDVVIEKPRMDPLHVRKLMETWRKAARRARTNYIDPWDEFNIHEYPVQRAKRYRYSAIRKQWTEDIVDVRLHPDSFARGAMRECYRLKKCSKHGTSQDWSSNYVAKRYICQVDRRVLFDDVRLQMDAKLWAEEYNRYNPPKKIDIVQMCVIEMIDVKGSPLYHLEHFIEGKYIKYNSNSGFVSNAARLTPQAFSHFTFERSGHQMMVVDIQGVGDLYTDPQIHTVVGTDYGDGNLGTRGMALFFHSHRCNDICETMDLSNFELSPPEIEATEVAMEVAAKQKKSCIVPPTVFEARRNRISSECVHVEHGISMDQLRKRKTLNQSSTDLSAKSHNEDCVCPECIPVVEQLCEPCSEDEEDEEEDYPRSEKSGNSQKSRRSRMSISTRSSGDESASRPRKCGFVDLNSLRQRHDSFRSSVGTYSMNSSRQTRDTEKDEFWKVLRKQSVPANILSLQLQQMAANLENDEDVPQVTGHQFSVLGQIHIDLSRYHELGRFVEVDSEHKEMLEGSENDARVPIKYDKQSAIFHLDIARKCGILEAVLTSAHIVLGLPHELLKEVTVDDLFPNGFGEQENGIRADKGQKPCDLEEFGSDLMEIAAEMGDKGAMLYMAHAYETGQHLGPNRRTDYKKSIDWYQRVVGFQEEEELDSDCGKTTFSSFAPLTRHEILAKMAEMYKEGGYGLNQDFERAYGLFNEAAEAAMEAMNGKLANKYYEKAEMCGE
eEF-2 phosphorylation activity in the presence and absence of Ca2+ and calmodulin (calmodulin): The eEF-2 phosphorylation activity of the recombinant protein is Ca^2+/calmodulin-dependant
eEF-2 kinase activity: phosphorylation of eEF-2 with [gamma-32P]ATP, SDS/PAGE and autoradiography [2]: The translation products of the mixture of Cefk-1 and Cefk-2 are able to phosphorylate eEF-2

B4: human eEF-2 kinase glutathione S-transferase fusion protein (protein)
chain: MADEDLIFRLEGVDGGQSPRAGHDGDSDGDSDDEEGYFICPITDDPSSNQNVNSKVNKYYSNLTKSERYSSSGSPANSFHFKEAWKHAIQKAKHMPDPWAEFHLEDIATERATRHRYNAVTGEWLDDEVLIKMASQPFGRGAMRECFRTKKLSNFLHAQQWKGASNYVAKRYIEPVDRDVYFEDVRLQMEAKLWGEEYNRHKPPKQVDIMQMCIIELKDRPGKPLFHLEHYIEGKYIKYNSNSGFVRDDNIRLTPQAFSHFTFERSGHQLIVVDIQGVGDLYTDPQIHTETGTDFGDGNLGVRGMALFFYSHACNRICESMGLAPFDLSPRERDAVNQNTKLLQSAKTILRGTEEKCGSPQVRTLSGSRPPLLRPLSENSGDENMSDVTFDSLPSSPSSATPHSQKLDHLHWPVFSDLDNMASRDHDHLDNHRESENSGDSGYPSEKRGELDDPEPREHGHSYSNRKYESDEDSLGSSGRVCVEKWNLLNSSRLHLPRASAVALEVQRLNALDLEKKIGKSILGKVHLAMVRYHEGGRFCEKGEEWDQESAVFHLEHAANLGELEAIVGLGLMYSQLPHHILADVSLKETEENKTKGFDYLLKAAEAGDRQSMILVARAFDSGQNLSPDRCQDWLEALHWYNTALEMTDCDEGGEYDGMQDEPRYMMLAREAEMLFTGGYGLEKDPQRSGDLYTQAAEAAMEAMKGRLANQYYQKAEEAWAQMEE
phosphorylation of eEF-2 and autophosphorylation, dependence on calmodulin (calmodulin): the ability of the recombinant enzyme to phosphorylate eEF-2 and to undergo autophosphorylation are strictly calmodulin-dependent (data not shown)
ability to phosphorylate eEF-2 [2]: All of the fusion eEF-2 kinase preparations were able to efficiently phosphorylate eEF-2 (data not shown)
phosphorylation of eEF-2 [2]: the ability of the recombinant enzyme to phosphorylate eEF-2 and to undergo autophosphorylation are strictly calmodulin-dependent (data not shown)

B5: recombinant human eEF-2 kinase (expressed in a coupled transcription/translation system) (protein)
chain: B4 chain
eEF-2 kinase activity in the presence and absence of Ca2+ and calmodulin (calmodulin): the recombinant human eEF-2 kinase activity was strictly Ca^2+/calmodulin-dependant

B6: human eEF-2 kinase 6xHis fusion protein (protein)
chain: B4 chain
ability to phosphorylate eEF-2 [2]: All of the fusion eEF-2 kinase preparations were able to efficiently phosphorylate eEF-2 (data not shown)

B7: human eEF-2 kinase thioredoxin fusion protein (protein)
chain: B4 chain
ability to phosphorylate eEF-2 [2]: All of the fusion eEF-2 kinase preparations were able to efficiently phosphorylate eEF-2 (data not shown)
